# From the supplement of paper PMC9112550, “Optimization of the antimicrobial peptide Bac7 by deep mutational scanning” (BMC Biology, 2022)
# Tested on: Escherichia coli TOP10
# Experiment: shrunken log2 fold change of peptide-encoding DNA abundance (4.5 h post-induction vs induction); higher = less antimicrobial activity (less host growth inhibition)
# Details: time post-induction: 4.5 h; library: site-saturation at positions 5, 18, 19, 20
# 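Note: peptides expressed intracellularly from a pBAD plasmid library in pooled LB shake-flask culture, induced with 0.3% L-arabinose, DNA abundance read by NGS, three biological replicates, DESeq2 with apeglm shrinkage.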
row,Sequence,shrunken log2 fold change
1,RRIRCRPPRLPRPRPRPPVSPRP,0.134
2,RRIRCRPPRLPRPRPRPPWLPRP,0.241
3,RRIRCRPPRLPRPRPRPQAHPRP,-0.132
4,RRIRCRPPRLPRPRPRPQAMPRP,0.189
5,RRIRCRPPRLPRPRPRPQCMPRP,-0.833
6,RRIRCRPPRLPRPRPRPQDNPRP,-0.285
7,RRIRCRPPRLPRPRPRPQEEPRP,-0.0124
8,RRIRCRPPRLPRPRPRPQHDPRP,-0.219
9,RRIRCRPPRLPRPRPRPQKAPRP,0.265
10,RRIRCRPPRLPRPRPRPQLHPRP,-0.213
11,RRIRCRPPRLPRPRPRPQMKPRP,-0.514
12,RRIRCRPPRLPRPRPRPQNWPRP,-0.0693
13,RRIRCRPPRLPRPRPRPQPDPRP,0.102
14,RRIRCRPPRLPRPRPRPQPQPRP,0.526
15,RRIRCRPPRLPRPRPRPQQDPRP,-0.046
16,RRIRCRPPRLPRPRPRPQSFPRP,-0.253
17,RRIRCRPPRLPRPRPRPQVSPRP,-0.0343
18,RRIRCRPPRLPRPRPRPQWRPRP,0.274
19,RRIRCRPPRLPRPRPRPQWTPRP,-0.205
20,RRIRCRPPRLPRPRPRPQYCPRP,-0.135
21,RRIRCRPPRLPRPRPRPQYEPRP,-0.119
22,RRIRCRPPRLPRPRPRPRANPRP,0.255
23,RRIRCRPPRLPRPRPRPRAWPRP,0.24
24,RRIRCRPPRLPRPRPRPRCIPRP,-0.29
25,RRIRCRPPRLPRPRPRPRCSPRP,-0.0164

row,Sequence,shrunken log2 fold change
1,RRIRCRPPRLPRPRPRPRDGPRP,1
2,RRIRCRPPRLPRPRPRPRFEPRP,0.115
3,RRIRCRPPRLPRPRPRPRGTPRP,0.0528
4,RRIRCRPPRLPRPRPRPRHVPRP,-0.0723
5,RRIRCRPPRLPRPRPRPRIYPRP,-0.0107
6,RRIRCRPPRLPRPRPRPRKQPRP,0.284
7,RRIRCRPPRLPRPRPRPRLDPRP,0.154
8,RRIRCRPPRLPRPRPRPRMDPRP,-0.0539
9,RRIRCRPPRLPRPRPRPRMGPRP,0.0392
10,RRIRCRPPRLPRPRPRPRMNPRP,-0.096
11,RRIRCRPPRLPRPRPRPRREPRP,0.746
12,RRIRCRPPRLPRPRPRPRRMPRP,0.00514
13,RRIRCRPPRLPRPRPRPRRQPRP,0.403
14,RRIRCRPPRLPRPRPRPRRYPRP,-0.0183
15,RRIRCRPPRLPRPRPRPRTGPRP,0.148
16,RRIRCRPPRLPRPRPRPRTWPRP,0.326
17,RRIRCRPPRLPRPRPRPRVFPRP,0.0449
18,RRIRCRPPRLPRPRPRPRVWPRP,0.747
19,RRIRCRPPRLPRPRPRPRWAPRP,0.453
20,RRIRCRPPRLPRPRPRPRYWPRP,-0.0818
21,RRIRCRPPRLPRPRPRPSCEPRP,-0.493
22,RRIRCRPPRLPRPRPRPSFFPRP,-0.552
23,RRIRCRPPRLPRPRPRPSHHPRP,-0.603
24,RRIRCRPPRLPRPRPRPSKYPRP,-0.635
25,RRIRCRPPRLPRPRPRPSLQPRP,-0.455

row,Sequence,shrunken log2 fold change
1,RRIRCRPPRLPRPRPRPSPCPRP,-0.0417
2,RRIRCRPPRLPRPRPRPSQCPRP,-0.548
3,RRIRCRPPRLPRPRPRPSQHPRP,-0.114
4,RRIRCRPPRLPRPRPRPSQPPRP,0.075
5,RRIRCRPPRLPRPRPRPSSLPRP,-0.555
6,RRIRCRPPRLPRPRPRPSSQPRP,-0.377
7,RRIRCRPPRLPRPRPRPSTAPRP,0.0354
8,RRIRCRPPRLPRPRPRPSTCPRP,-0.355
9,RRIRCRPPRLPRPRPRPSTFPRP,-0.714
10,RRIRCRPPRLPRPRPRPSTNPRP,-0.911
11,RRIRCRPPRLPRPRPRPSWGPRP,0.258
12,RRIRCRPPRLPRPRPRPSYQPRP,-0.923
13,RRIRCRPPRLPRPRPRPSYRPRP,-0.242
14,RRIRCRPPRLPRPRPRPTAEPRP,0.363
15,RRIRCRPPRLPRPRPRPTASPRP,0.266
16,RRIRCRPPRLPRPRPRPTDQPRP,0.38
17,RRIRCRPPRLPRPRPRPTDVPRP,-0.461
18,RRIRCRPPRLPRPRPRPTEHPRP,0.00581
19,RRIRCRPPRLPRPRPRPTFSPRP,-0.187
20,RRIRCRPPRLPRPRPRPTFWPRP,0.174
21,RRIRCRPPRLPRPRPRPTGAPRP,0.419
22,RRIRCRPPRLPRPRPRPTHRPRP,0.426
23,RRIRCRPPRLPRPRPRPTIKPRP,-0.364
24,RRIRCRPPRLPRPRPRPTKAPRP,0.209
25,RRIRCRPPRLPRPRPRPTKLPRP,-0.132

row,Sequence,shrunken log2 fold change
1,RRIRCRPPRLPRPRPRPTKPPRP,0.531
2,RRIRCRPPRLPRPRPRPTKRPRP,0.0767
3,RRIRCRPPRLPRPRPRPTKYPRP,-0.192
4,RRIRCRPPRLPRPRPRPTMLPRP,-0.096
5,RRIRCRPPRLPRPRPRPTPPPRP,0.807
6,RRIRCRPPRLPRPRPRPTPSPRP,0.736
7,RRIRCRPPRLPRPRPRPTQHPRP,0.349
8,RRIRCRPPRLPRPRPRPTQPPRP,0.222
9,RRIRCRPPRLPRPRPRPTSVPRP,0.0631
10,RRIRCRPPRLPRPRPRPTTIPRP,-0.492
11,RRIRCRPPRLPRPRPRPTVWPRP,0.553
12,RRIRCRPPRLPRPRPRPTWGPRP,0.301
13,RRIRCRPPRLPRPRPRPVANPRP,0.0866
14,RRIRCRPPRLPRPRPRPVDKPRP,-0.184
15,RRIRCRPPRLPRPRPRPVDLPRP,-0.348
16,RRIRCRPPRLPRPRPRPVDNPRP,-0.00721
17,RRIRCRPPRLPRPRPRPVDTPRP,-0.0338
18,RRIRCRPPRLPRPRPRPVEDPRP,-0.0221
19,RRIRCRPPRLPRPRPRPVETPRP,0.0672
20,RRIRCRPPRLPRPRPRPVFYPRP,-0.379
21,RRIRCRPPRLPRPRPRPVGNPRP,-0.0972
22,RRIRCRPPRLPRPRPRPVGQPRP,0.0533
23,RRIRCRPPRLPRPRPRPVGTPRP,-0.149
24,RRIRCRPPRLPRPRPRPVLGPRP,0.0642
25,RRIRCRPPRLPRPRPRPVLKPRP,0.181

row,Sequence,shrunken log2 fold change
1,RRIRCRPPRLPRPRPRPVLVPRP,-0.0168
2,RRIRCRPPRLPRPRPRPVMWPRP,0.131
3,RRIRCRPPRLPRPRPRPVNPPRP,-0.176
4,RRIRCRPPRLPRPRPRPVQHPRP,-0.0893
5,RRIRCRPPRLPRPRPRPVQVPRP,-0.164
6,RRIRCRPPRLPRPRPRPVQYPRP,-0.203
7,RRIRCRPPRLPRPRPRPVSGPRP,0.357
8,RRIRCRPPRLPRPRPRPVSNPRP,0.0201
9,RRIRCRPPRLPRPRPRPVTGPRP,-0.0982
10,RRIRCRPPRLPRPRPRPVTLPRP,-0.34
11,RRIRCRPPRLPRPRPRPVVRPRP,-0.356
12,RRIRCRPPRLPRPRPRPVWGPRP,-0.0554
13,RRIRCRPPRLPRPRPRPVWMPRP,-0.179
14,RRIRCRPPRLPRPRPRPVWQPRP,-0.063
15,RRIRCRPPRLPRPRPRPVYHPRP,-0.53
16,RRIRCRPPRLPRPRPRPVYKPRP,-0.595
17,RRIRCRPPRLPRPRPRPVYWPRP,0.134
18,RRIRCRPPRLPRPRPRPVYYPRP,-0.363
19,RRIRCRPPRLPRPRPRPWCAPRP,-0.0685
20,RRIRCRPPRLPRPRPRPWFCPRP,-0.177
21,RRIRCRPPRLPRPRPRPWGPPRP,-0.299
22,RRIRCRPPRLPRPRPRPWHTPRP,-0.261
23,RRIRCRPPRLPRPRPRPWIDPRP,-0.00146
24,RRIRCRPPRLPRPRPRPWISPRP,-0.085
25,RRIRCRPPRLPRPRPRPWKDPRP,0.00196

row,Sequence,shrunken log2 fold change
1,RRIRCRPPRLPRPRPRPWLTPRP,-0.117
2,RRIRCRPPRLPRPRPRPWNNPRP,-0.107
3,RRIRCRPPRLPRPRPRPWPAPRP,0.375
4,RRIRCRPPRLPRPRPRPWPEPRP,-0.15
5,RRIRCRPPRLPRPRPRPWPPPRP,1.08
6,RRIRCRPPRLPRPRPRPWPTPRP,0.0985
7,RRIRCRPPRLPRPRPRPWQEPRP,-0.153
8,RRIRCRPPRLPRPRPRPWQFPRP,-0.0402
9,RRIRCRPPRLPRPRPRPWQKPRP,-0.0588
10,RRIRCRPPRLPRPRPRPWRIPRP,-0.321
11,RRIRCRPPRLPRPRPRPWRMPRP,-0.116
12,RRIRCRPPRLPRPRPRPWRTPRP,-0.166
13,RRIRCRPPRLPRPRPRPWSWPRP,0.0159
14,RRIRCRPPRLPRPRPRPWTGPRP,-0.422
15,RRIRCRPPRLPRPRPRPWVSPRP,-0.463
16,RRIRCRPPRLPRPRPRPWWLPRP,-0.0111
17,RRIRCRPPRLPRPRPRPWWMPRP,-0.0465
18,RRIRCRPPRLPRPRPRPWYPPRP,-0.742
19,RRIRCRPPRLPRPRPRPYDIPRP,0.0852
20,RRIRCRPPRLPRPRPRPYEFPRP,-0.0684
21,RRIRCRPPRLPRPRPRPYEMPRP,-0.151
22,RRIRCRPPRLPRPRPRPYEQPRP,-0.435
23,RRIRCRPPRLPRPRPRPYFHPRP,-0.233
24,RRIRCRPPRLPRPRPRPYGIPRP,-0.128
25,RRIRCRPPRLPRPRPRPYGPPRP,-0.398
